Assay results as given in ChEMBL document CHEMBL1145332, “Design of inhibitors of orotidine monophosphate decarboxylase using bioisosteric replacement and determination of inhibition kinetics” (J Med Chem, 2006).

Experiments:
[1] = substrate: O=C(O)c1cc(=O)[nH]c(=O)n1[C@@H]1O[C@H](COP(=O)(O)O)[C@@H](O)[C@H]1O; assay: Affinity for Plasmodium falciparum ODCase at 25 degreeC by UV-based assay
[2] = substrate: O=C(O)c1cc(=O)[nH]c(=O)n1[C@@H]1O[C@H](COP(=O)(O)O)[C@@H](O)[C@H]1O; assay: Affinity for Saccharomyces cerevisiae ODCase at 25 degreeC by UV-based assay
[3] = substrate: O=C(O)c1cc(=O)[nH]c(=O)n1[C@@H]1O[C@H](COP(=O)(O)O)[C@@H](O)[C@H]1O; assay: Affinity for Methanobacterium thermoautotrophicum ODCase at 25 degreeC by ITC method
[4] = substrate: O=C(O)c1cc(=O)[nH]c(=O)n1[C@@H]1O[C@H](COP(=O)(O)O)[C@@H](O)[C@H]1O; assay: Affinity for Methanobacterium thermoautotrophicum ODCase at 55 degreeC by ITC method

B1: Orotidine phosphate decarboxylase (Plasmodium falciparum), Q8T6J6 (protein)
chain: MGFKVKLEKRRNAINTCLCIGLDPDEKDIENFMKNEKENNYNNIKKNLKEKYINNVSIKKDILLKAPDNIIREEKSEEFFYFFNHFCFYIINETNKYALTFKMNFAFYIPYGSVGIDVLKNVFDYLYELNIPTILDMKINDIGNTVKNYRKFIFEYLKSDSCTVNIYMGTNMLKDICYDEEKNKYYSAFVLVKTTNPDSAIFQKNLSLDNKQAYVIMAQEALNMSSYLNLEQNNEFIGFVVGANSYDEMNYIRTYFPNCYILSPGIGAQNGDLHKTLTNGYHKSYEKILINIGRAITKNPYPQKAAQMYYDQINAILKQNMES
Km [1]: 13 µM

B2: Orotidine 5'-phosphate decarboxylase (Saccharomyces cerevisiae S288c), P03962 (protein)
chain: MSKATYKERAATHPSPVAAKLFNIMHEKQTNLCASLDVRTTKELLELVEALGPKICLLKTHVDILTDFSMEGTVKPLKALSAKYNFLLFEDRKFADIGNTVKLQYSAGVYRIAEWADITNAHGVVGPGIVSGLKQAAEEVTKEPRGLLMLAELSCKGSLATGEYTKGTVDIAKSDKDFVIGFIAQRDMGGRDEGYDWLIMTPGVGLDDKGDALGQQYRTVDDVVSTGSDIIIVGRGLFAKGRDAKVEGERYRKAGWEAYLRRCGQQN
Km [2]: 0.7 µM

B3: Orotidine 5'-phosphate decarboxylase (Methanobacterium thermoautotrophicum), O26232 (protein)
chain: MRSRRVDVMDVMNRLILAMDLMNRDDALRVTGEVREYIDTVKIGYPLVLSEGMDIIAEFRKRFGCRIIADFKVADIPETNEKICRATFKAGADAIIVHGFRGADSVRACLNVAEEMGREVFLLTEMSHPGAEMFIQGAADEIARMGVDLGVKNYVGPSTRPERLSRLREIIGQDSFLISPGVGAQGGDPGETLRFADAIIVGRSIYLADNPAAAAAGIIESIKDLLNP
Km [3]: 2 µM
Km [4]: 5 µM
